Article doi:10.1101/2023.06.01.543357, “Novel histones and histone variant families in prokaryotes” (bioRxiv, 2023)

Target: the molecule itself
Assay: crystal structure; HTkC at 4.0 mg/mL in 50 mM Tris-HCl pH 7.0, 100 mM KCl, 10% glycerol; sitting drop vapour diffusion, reservoir 0.01 M trisodium citrate, 33% (w/v) PEG 6000; space group P212121, 1.84 Å; four monomers in the asymmetric unit; dimers to tetramer

B1: face-to-face (FtF) histone from Thermococcus kodakarensis (HTkC) (natural protein)
chain: MAEMLVKSKVKEFVKSVDPEMRVSPEFYDALEAEVKALVEKAIKRAQAEGRKTLYARHV
notes: Face-to-face histone HTkC of Thermococcus kodakarensis, product of gene TK1040 (synthesised gene cloned into pET30b, plasmid pRD503); purification was by heat, heparin and size exclusion; The crystal holds four monomers (two dimers) in the asymmetric unit, forming a torus-shaped tetramer; also called FtF histone HTkC; TK1040; source: E. coli BL21(DE3)pLysS, purified (heat step at 70 °C, HiTrap …)
stoichiometry N: 4
